Results published in patent publication US20150246949A1, “Desmoglein 2 (DSG2) Binding Proteins and Uses Therefor” (UNIVERSITY OF WASHINGTON THROUGH ITS CENTER FOR …, priority 2012, published 2015).

Assays:
[1] = molecular target: T1, Recombinant human DSG2 protein (Leinco Technologies) (human, UniProt Q14126 50-609); experiment: SPR (BIAcore 3000), DSG2 immobilised on the sensor chip, knobs injected at 2.5 to 10 µg/ml, BIAeval
T1 construct: also called soluble DSG2; soluble recombinant DSG2
T1 sequence: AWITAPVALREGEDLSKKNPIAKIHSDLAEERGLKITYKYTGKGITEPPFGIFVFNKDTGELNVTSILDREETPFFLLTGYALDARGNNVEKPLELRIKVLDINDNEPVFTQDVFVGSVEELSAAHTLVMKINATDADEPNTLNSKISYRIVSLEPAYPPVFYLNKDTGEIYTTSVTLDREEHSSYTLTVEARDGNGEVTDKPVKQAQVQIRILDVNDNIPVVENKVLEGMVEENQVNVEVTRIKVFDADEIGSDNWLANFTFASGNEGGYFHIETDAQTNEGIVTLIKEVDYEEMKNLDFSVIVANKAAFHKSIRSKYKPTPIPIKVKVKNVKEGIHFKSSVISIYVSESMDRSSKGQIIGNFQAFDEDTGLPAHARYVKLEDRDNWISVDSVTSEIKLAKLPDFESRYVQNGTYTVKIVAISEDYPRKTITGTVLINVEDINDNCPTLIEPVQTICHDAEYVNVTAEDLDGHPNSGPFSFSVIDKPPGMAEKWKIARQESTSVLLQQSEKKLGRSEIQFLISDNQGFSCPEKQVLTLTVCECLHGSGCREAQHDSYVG

[2] = molecular target: T1, Recombinant human DSG2 protein (Leinco …); experiment: Western blot of dimeric knob (trimer band), soluble recombinant DSG2 as probe, anti-DSG2 mAb
[3] = molecular target: T2, human DSG2 on cells (HeLa cells; polarized T84 cells) (human, UniProt Q14126 50-1118); experiment: attachment of 3H-labelled Ad3 virus (competitor) to HeLa cells pre-incubated with the dimeric knob
T2 construct: whole, on cells; also called HeLa cells, which express DSG2
T2 sequence: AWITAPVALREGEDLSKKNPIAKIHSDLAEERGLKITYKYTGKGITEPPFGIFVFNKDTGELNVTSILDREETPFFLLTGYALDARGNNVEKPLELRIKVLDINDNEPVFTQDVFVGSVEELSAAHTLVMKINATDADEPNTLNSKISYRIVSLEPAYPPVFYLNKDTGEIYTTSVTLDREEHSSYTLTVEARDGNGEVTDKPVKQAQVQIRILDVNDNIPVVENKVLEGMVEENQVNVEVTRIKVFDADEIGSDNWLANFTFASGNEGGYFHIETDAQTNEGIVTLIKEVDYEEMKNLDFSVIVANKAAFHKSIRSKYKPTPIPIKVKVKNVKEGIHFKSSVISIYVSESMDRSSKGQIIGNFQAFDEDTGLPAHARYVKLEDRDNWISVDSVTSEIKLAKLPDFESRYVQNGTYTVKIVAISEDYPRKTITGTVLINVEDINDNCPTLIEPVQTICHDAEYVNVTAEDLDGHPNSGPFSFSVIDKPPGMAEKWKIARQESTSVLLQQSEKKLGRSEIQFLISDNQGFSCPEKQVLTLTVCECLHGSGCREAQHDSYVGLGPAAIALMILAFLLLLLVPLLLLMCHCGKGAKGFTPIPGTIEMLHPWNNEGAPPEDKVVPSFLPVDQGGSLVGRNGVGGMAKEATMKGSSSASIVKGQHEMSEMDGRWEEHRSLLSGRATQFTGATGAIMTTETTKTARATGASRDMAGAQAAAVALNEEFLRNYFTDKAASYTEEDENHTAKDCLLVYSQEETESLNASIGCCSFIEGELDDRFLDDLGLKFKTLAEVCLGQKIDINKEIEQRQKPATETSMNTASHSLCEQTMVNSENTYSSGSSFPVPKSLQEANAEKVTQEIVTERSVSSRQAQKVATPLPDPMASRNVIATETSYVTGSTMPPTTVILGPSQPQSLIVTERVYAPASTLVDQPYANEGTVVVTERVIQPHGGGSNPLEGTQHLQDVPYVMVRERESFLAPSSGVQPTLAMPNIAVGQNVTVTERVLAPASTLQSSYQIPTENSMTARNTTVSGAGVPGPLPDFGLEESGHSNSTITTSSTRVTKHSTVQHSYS

[4] = molecular target: T2, human DSG2 on cells (HeLa cells; …); experiment: cell-based or functional assay

B1: Ad3 fiber knob mutant E248G+K258E without dimerization domain (ligand)
chain: NKLCSKLGNGLTFDSSNSIALKNNTLWTGPKPEANCIIEYGKQNPDSKLTLILVKNGGIVNGYVTLMGASDYVNTLFKNKNVSINVELYFDATGHILPDSSSLKTDLELKYKQTADFSARGFMPSTTAYPFVLPNAGTHNGNYIFGQCYYEASDGALFPLEVTVMLNKRLPDSRTSYVMTFLWSLNAGLAPETTQATLITSPFTFSYIREDD
notes: range 108-319; not shown: N-terminal 6-His tag of pQE30 and linker
B1 gave a Kd [1] of 49.4 nM, a koff [1] of 0.00147 s⁻¹ and a kon [1] of 29800 M⁻¹ s⁻¹.

B2: Ad3 fiber knob mutant K217E+F224S without dimerization domain (ligand)
chain: NKLCSKLGNGLTFDSSNSIALKNNTLWTGPKPEANCIIEYGKQNPDSKLTLILVKNGGIVNGYVTLMGASDYVNTLFKNKNVSINVELYFDATGHILPDSSSLKTDLELEYKQTADSSARGFMPSTTAYPFVLPNAGTHNENYIFGQCYYKASDGALFPLEVTVMLNKRLPDSRTSYVMTFLWSLNAGLAPETTQATLITSPFTFSYIREDD
notes: range 108-319; also called K217E/F224S mutant (non-dimerized form); not shown: N-terminal 6-His tag of pQE30 and linker
Work on B2 yielded a Kd [1] of 53.9 nM, a koff [1] of 0.00317 s⁻¹ and a kon [1] of 58800 M⁻¹ s⁻¹.

B3: Ad3 fiber knob mutant F224L without dimerization domain (ligand)
chain: NKLCSKLGNGLTFDSSNSIALKNNTLWTGPKPEANCIIEYGKQNPDSKLTLILVKNGGIVNGYVTLMGASDYVNTLFKNKNVSINVELYFDATGHILPDSSSLKTDLELKYKQTADLSARGFMPSTTAYPFVLPNAGTHNENYIFGQCYYKASDGALFPLEVTVMLNKRLPDSRTSYVMTFLWSLNAGLAPETTQATLITSPFTFSYIREDD
notes: as for B1
With B3 the Kd [1] was 78.7 nM, the koff [1] was 0.00269 s⁻¹ and the kon [1] was 34200 M⁻¹ s⁻¹.

B4: Ad3 fiber knob mutant N293S without dimerization domain (ligand)
chain: NKLCSKLGNGLTFDSSNSIALKNNTLWTGPKPEANCIIEYGKQNPDSKLTLILVKNGGIVNGYVTLMGASDYVNTLFKNKNVSINVELYFDATGHILPDSSSLKTDLELKYKQTADFSARGFMPSTTAYPFVLPNAGTHNENYIFGQCYYKASDGALFPLEVTVMLNKRLPDSRTSYVMTFLWSLSAGLAPETTQATLITSPFTFSYIREDD
notes: range 108-319; also called N293S/noDD; not shown: N-terminal 6-His tag of pQE30 and linker
Work on B4 yielded a Kd [1] of 73.2 nM, a koff [1] of 8.7e-05 s⁻¹ and a kon [1] of 1190 M⁻¹ s⁻¹.

B5: dimeric Ad3 fiber knob mutant D261N, L296R (designed binder)
chain: MKVSALKEKVSALKEKVSALKEKVSALKEKVSALKEGSGGGSGGGSGGGSNSIALKNNTLWTGPKPEANCIIEYGKQNPDSKLTLILVKNGGIVNGYVTLMGASDYVNTLFKNKNVSINVELYFDATGHILPDSSSLKTDLELKYKQTADFSARGFMPSTTAYPFVLPNAGTHNENYIFGQCYYKASNGALFPLEVTVMLNKRLPDSRTSYVMTFLWSLNAGRAPETTQATLITSPFTFSYIREDD
notes: also called D261, L296R; combination of D261N and L296R
B5 was tested, and the “Western blot residual DSG2 binding (wtAd3 knob = 100%)” value [2] was 7%, the “Inhibition of attachment in the presence of dimeric knob (JO-1 = 100%)” value (“Inhibition of attachment … (JO-1 = 100%)” below) [3] was 20.1% and the “Inhibition of infection in the presence of dimeric knob (JO-1 = 100%)” value (“Inhibition of infection … (JO-1 = 100%)” below) [4] was 1.5%.

B6: dimeric Ad3 fiber knob mutant E299V (designed binder)
chain: MKVSALKEKVSALKEKVSALKEKVSALKEKVSALKEGSGGGSGGGSGGGSNSIALKNNTLWTGPKPEANCIIEYGKQNPDSKLTLILVKNGGIVNGYVTLMGASDYVNTLFKNKNVSINVELYFDATGHILPDSSSLKTDLELKYKQTADFSARGFMPSTTAYPFVLPNAGTHNENYIFGQCYYKASDGALFPLEVTVMLNKRLPDSRTSYVMTFLWSLNAGLAPVTTQATLITSPFTFSYIREDD
For B6, the “Western blot residual DSG2 binding (wtAd3 knob = 100%)” value [2] was 20%, the “Inhibition of attachment … (JO-1 = 100%)” value [3] was 97.3% and the “Inhibition of infection … (JO-1 = 100%)” value [4] was 50.7%.

B7: dimeric Ad3 fiber knob mutant S190P (designed binder)
chain: MKVSALKEKVSALKEKVSALKEKVSALKEKVSALKEGSGGGSGGGSGGGSNSIALKNNTLWTGPKPEANCIIEYGKQNPDSKLTLILVKNGGIVNGYVTLMGASDYVNTLFKNKNVPINVELYFDATGHILPDSSSLKTDLELKYKQTADFSARGFMPSTTAYPFVLPNAGTHNENYIFGQCYYKASDGALFPLEVTVMLNKRLPDSRTSYVMTFLWSLNAGLAPETTQATLITSPFTFSYIREDD
notes: also called 5190P [sic]
B7 was tested, and the “Western blot residual DSG2 binding (wtAd3 knob = 100%)” value [2] was 7.1%, the “Inhibition of attachment … (JO-1 = 100%)” value [3] was 73.4% and the “Inhibition of infection … (JO-1 = 100%)” value [4] was 30.9%.

B8: dimeric Ad3 fiber knob mutant L296R (designed binder)
chain: MKVSALKEKVSALKEKVSALKEKVSALKEKVSALKEGSGGGSGGGSGGGSNSIALKNNTLWTGPKPEANCIIEYGKQNPDSKLTLILVKNGGIVNGYVTLMGASDYVNTLFKNKNVSINVELYFDATGHILPDSSSLKTDLELKYKQTADFSARGFMPSTTAYPFVLPNAGTHNENYIFGQCYYKASDGALFPLEVTVMLNKRLPDSRTSYVMTFLWSLNAGRAPETTQATLITSPFTFSYIREDD
For B8, the “Western blot residual DSG2 binding (wtAd3 knob = 100%)” value [2] was 3.6%, the “Inhibition of attachment … (JO-1 = 100%)” value [3] was 73.7% and the “Inhibition of infection … (JO-1 = 100%)” value [4] was 5.1%.

B9: dimeric Ad3 fiber knob mutant V189G (designed binder)
chain: MKVSALKEKVSALKEKVSALKEKVSALKEKVSALKEGSGGGSGGGSGGGSNSIALKNNTLWTGPKPEANCIIEYGKQNPDSKLTLILVKNGGIVNGYVTLMGASDYVNTLFKNKNGSINVELYFDATGHILPDSSSLKTDLELKYKQTADFSARGFMPSTTAYPFVLPNAGTHNENYIFGQCYYKASDGALFPLEVTVMLNKRLPDSRTSYVMTFLWSLNAGLAPETTQATLITSPFTFSYIREDD
For B9, the “Western blot residual DSG2 binding (wtAd3 knob = 100%)” value [2] was 14%, the “Inhibition of attachment … (JO-1 = 100%)” value [3] was 81% and the “Inhibition of infection … (JO-1 = 100%)” value [4] was 54%.

B10: dimeric Ad3 fiber knob mutant N186D, D261N (designed binder)
chain: MKVSALKEKVSALKEKVSALKEKVSALKEKVSALKEGSGGGSGGGSGGGSNSIALKNNTLWTGPKPEANCIIEYGKQNPDSKLTLILVKNGGIVNGYVTLMGASDYVNTLFKDKNVSINVELYFDATGHILPDSSSLKTDLELKYKQTADFSARGFMPSTTAYPFVLPNAGTHNENYIFGQCYYKASNGALFPLEVTVMLNKRLPDSRTSYVMTFLWSLNAGLAPETTQATLITSPFTFSYIREDD
notes: also called combination of N186D and D261N
For B10, the “Western blot residual DSG2 binding (wtAd3 knob = 100%)” value [2] was 7%, the “Inhibition of attachment … (JO-1 = 100%)” value [3] was 23.5% and the “Inhibition of infection … (JO-1 = 100%)” value [4] was 5.2%.

B11: dimeric Ad3 fiber knob mutant N186D, D261N, L296R (designed binder)
chain: MKVSALKEKVSALKEKVSALKEKVSALKEKVSALKEGSGGGSGGGSGGGSNSIALKNNTLWTGPKPEANCIIEYGKQNPDSKLTLILVKNGGIVNGYVTLMGASDYVNTLFKDKNVSINVELYFDATGHILPDSSSLKTDLELKYKQTADFSARGFMPSTTAYPFVLPNAGTHNENYIFGQCYYKASNGALFPLEVTVMLNKRLPDSRTSYVMTFLWSLNAGRAPETTQATLITSPFTFSYIREDD
notes: also called mutant with mutations in all three areas (N185, D261, L296)
In the case of B11, the “Western blot residual DSG2 binding (wtAd3 knob = 100%)” value [2] is reported as 0%.

B12: dimeric Ad3 fiber knob mutant N186D (designed binder)
chain: MKVSALKEKVSALKEKVSALKEKVSALKEKVSALKEGSGGGSGGGSGGGSNSIALKNNTLWTGPKPEANCIIEYGKQNPDSKLTLILVKNGGIVNGYVTLMGASDYVNTLFKDKNVSINVELYFDATGHILPDSSSLKTDLELKYKQTADFSARGFMPSTTAYPFVLPNAGTHNENYIFGQCYYKASDGALFPLEVTVMLNKRLPDSRTSYVMTFLWSLNAGLAPETTQATLITSPFTFSYIREDD
In the case of B12, the “Western blot residual DSG2 binding (wtAd3 knob = 100%)” value [2] is reported as 5.3%, the “Inhibition of attachment … (JO-1 = 100%)” value [3] is reported as 56.5% and the “Inhibition of infection … (JO-1 = 100%)” value [4] is reported as 32.7%.
